{"source": "paper doi:10.1101/2020.12.18.423415", "about": "(bioRxiv, 2020)", "binders": {"B1": {"name": "recombinant fragment of human surfactant protein D (rfhSP-D) (domain or fragment)", "chain": "PGLKGDKGIPGDKGAKGESGLPDVASLRQQVEALQGQVQHLQAAFSQYKKVELFPNGQSVGEKIFKTAGFVKPFTEAQLLCTQAGGQLASPRSAAENAALQQLVVAKNEAAFLSMTDSKTEGKFTYPTGESLVYSNWAPGEPNDDGGSEDCVEIFTNGKWNDRACGEKRLVVCEF"}}, "molecular_target": "receptor binding domain (RBD) of the SARS-CoV-2 S protein (SARS-CoV-2, UniProt P0DTC2)", "assay": "ELISA"}
{"binder": "B1", "values": [{"measurement": "percent decrease of RBD-hACE-2 interaction (rfhSP-D increased 8-fold)", "value": "~25", "unit": "%"}]}
